From FireProtDB (doi:10.1074/jbc.272.30.18686)

B1: Ribonuclease HI, P0A7Y4 (parent)
chain: MLKQVEIFTDGSCLGNPGPGGYGAILRYRGREKTFSAGYTRTTNNRMELMAAIVALEALKEHCEVILSTDSQYVRQGITQWIHNWKKRGWKTADKKPVKNVDLWQRLDAALGQHQIKWEWVKGHAGHPENERCDELARAAAMNPTLEDTGYQVEV

Variants of: B1
Settings: Escherichia coli (strain K12), pH 3.2, Thermal, CD, glycine-HCl 10 mM, reversible: yes, structure 2RN2, whole UniProt chain shown; for ddG of mutation (higher = less stable): 53 °C

Variant	ddG of mutation (higher = less stable) [kcal/mol]	Tm [°C]	change of melting temperature, mutant - wild type (higher = more stable) [°C]	unfolding enthalpy (van 't Hoff) [kcal/mol]
MLKQVEIFTDGSCLGNPGPGGYGAILRYRGREKTFSAGYTRTTNNRMELMAVIVALEALKEHCEVILSTDSQYARQGITQWIHNWKKRGWKTADKKPVKNVDLWQRLDAALGQHQIKWEWVKGHAGHPENERCDELARAAAMNPTLEDTGYQVEV [A52V V74A]	0.52	51.3	-1.7	107
MLKQVEIFTDGSCLGNPGPGGYGAILRYRGREKTFSAGYTRTTNNRMELMAIIVALEALKEHCEVILSTDSQYARQGITQWIHNWKKRGWKTADKKPVKNVDLWQRLDAALGQHQIKWEWVKGHAGHPENERCDELARAAAMNPTLEDTGYQVEV [A52I V74A]	-1.19	56.9	3.9	102
MLKQVEIFTDGSCLGNPGPGGYGAILRYRGREKTFSAGYTRTTNNRMELMAIIVALEALKEHCEVILSTDSQYLRQGITQWIHNWKKRGWKTADKKPVKNVDLWQRLDAALGQHQIKWEWVKGHAGHPENERCDELARAAAMNPTLEDTGYQVEV [A52I V74L]	-1.19	56.9	3.9	122
MLKQVEIFTDGSCLGNPGPGGYGAILRYRGREKTFSAGYTRTTNNRMELMAQIVALEALKEHCEVILSTDSQYVRQGITQWIHNWKKRGWKTADKKPVKNVDLWQRLDAALGQHQIKWEWVKGHAGHPENERCDELARAAAMNPTLEDTGYQVEV [A52Q]	1.2	49.1	-3.9	90.3
MLKQVEIFTDGSCLGNPGPGGYGAILRYRGREKTFSAGYTRTTNNRMELMAIIVALEALKEHCEVILSTDSQYVRQGITQWIHNWKKRGWKTADKKPVKNVDLWQRLDAALGQHQIKWEWVKGHAGHPENERCDELARAAAMNPTLEDTGYQVEV [A52I]	-1.9	59.2	6.2	84.8
MLKQVEIFTDGSCLGNPGPGGYGAILRYRGREKTFSAGYTRTTNNRMELMATIVALEALKEHCEVILSTDSQYVRQGITQWIHNWKKRGWKTADKKPVKNVDLWQRLDAALGQHQIKWEWVKGHAGHPENERCDELARAAAMNPTLEDTGYQVEV [A52T]	0.8	50.3	-2.7	108
MLKQVEIFTDGSCLGNPGPGGYGAILRYRGREKTFSAGYTRTTNNRMELMAVIVALEALKEHCEVILSTDSQYVRQGITQWIHNWKKRGWKTADKKPVKNVDLWQRLDAALGQHQIKWEWVKGHAGHPENERCDELARAAAMNPTLEDTGYQVEV [A52V]	-1.7	58.5	5.5	128
MLKQVEIFTDGSCLGNPGPGGYGAILRYRGREKTFSAGYTRTTNNRMELMAEIVALEALKEHCEVILSTDSQYVRQGITQWIHNWKKRGWKTADKKPVKNVDLWQRLDAALGQHQIKWEWVKGHAGHPENERCDELARAAAMNPTLEDTGYQVEV [A52E]	1.5	–	–	–
MLKQVEIFTDGSCLGNPGPGGYGAILRYRGREKTFSAGYTRTTNNRMELMASIVALEALKEHCEVILSTDSQYVRQGITQWIHNWKKRGWKTADKKPVKNVDLWQRLDAALGQHQIKWEWVKGHAGHPENERCDELARAAAMNPTLEDTGYQVEV [A52S]	1.8	47.2	-5.8	118
MLKQVEIFTDGSCLGNPGPGGYGAILRYRGREKTFSAGYTRTTNNRMELMAPIVALEALKEHCEVILSTDSQYVRQGITQWIHNWKKRGWKTADKKPVKNVDLWQRLDAALGQHQIKWEWVKGHAGHPENERCDELARAAAMNPTLEDTGYQVEV [A52P]	1.6	47.6	-5.4	93
MLKQVEIFTDGSCLGNPGPGGYGAILRYRGREKTFSAGYTRTTNNRMELMAMIVALEALKEHCEVILSTDSQYVRQGITQWIHNWKKRGWKTADKKPVKNVDLWQRLDAALGQHQIKWEWVKGHAGHPENERCDELARAAAMNPTLEDTGYQVEV [A52M]	-0.5	54.6	1.6	112
MLKQVEIFTDGSCLGNPGPGGYGAILRYRGREKTFSAGYTRTTNNRMELMAKIVALEALKEHCEVILSTDSQYVRQGITQWIHNWKKRGWKTADKKPVKNVDLWQRLDAALGQHQIKWEWVKGHAGHPENERCDELARAAAMNPTLEDTGYQVEV [A52K]	5.9	33.5	-19.5	70.8
MLKQVEIFTDGSCLGNPGPGGYGAILRYRGREKTFSAGYTRTTNNRMELMALIVALEALKEHCEVILSTDSQYVRQGITQWIHNWKKRGWKTADKKPVKNVDLWQRLDAALGQHQIKWEWVKGHAGHPENERCDELARAAAMNPTLEDTGYQVEV [A52L]	-1.3	–	–	–
MLKQVEIFTDGSCLGNPGPGGYGAILRYRGREKTFSAGYTRTTNNRMELMACIVALEALKEHCEVILSTDSQYVRQGITQWIHNWKKRGWKTADKKPVKNVDLWQRLDAALGQHQIKWEWVKGHAGHPENERCDELARAAAMNPTLEDTGYQVEV [A52C]	-0.8	55.5	2.5	128
MLKQVEIFTDGSCLGNPGPGGYGAILRYRGREKTFSAGYTRTTNNRMELMANIVALEALKEHCEVILSTDSQYVRQGITQWIHNWKKRGWKTADKKPVKNVDLWQRLDAALGQHQIKWEWVKGHAGHPENERCDELARAAAMNPTLEDTGYQVEV [A52N]	1.8	47.1	-5.9	95.6
MLKQVEIFTDGSCLGNPGPGGYGAILRYRGREKTFSAGYTRTTNNRMELMADIVALEALKEHCEVILSTDSQYVRQGITQWIHNWKKRGWKTADKKPVKNVDLWQRLDAALGQHQIKWEWVKGHAGHPENERCDELARAAAMNPTLEDTGYQVEV [A52D]	1.9	–	–	–
MLKQVEIFTDGSCLGNPGPGGYGAILRYRGREKTFSAGYTRTTNNRMELMAFIVALEALKEHCEVILSTDSQYLRQGITQWIHNWKKRGWKTADKKPVKNVDLWQRLDAALGQHQIKWEWVKGHAGHPENERCDELARAAAMNPTLEDTGYQVEV [A52F V74L]	-0.03	53.1	0.1	99.8
MLKQVEIFTDGSCLGNPGPGGYGAILRYRGREKTFSAGYTRTTNNRMELMALIVALEALKEHCEVILSTDSQYLRQGITQWIHNWKKRGWKTADKKPVKNVDLWQRLDAALGQHQIKWEWVKGHAGHPENERCDELARAAAMNPTLEDTGYQVEV [A52L V74L]	-1.49	57.9	4.9	118
MLKQVEIFTDGSCLGNPGPGGYGAILRYRGREKTFSAGYTRTTNNRMELMALIVALEALKEHCEVILSTDSQYARQGITQWIHNWKKRGWKTADKKPVKNVDLWQRLDAALGQHQIKWEWVKGHAGHPENERCDELARAAAMNPTLEDTGYQVEV [A52L V74A]	-0.36	54.2	1.2	105
MLKQVEIFTDGSCLGNPGPGGYGAILRYRGREKTFSAGYTRTTNNRMELMAGIVALEALKEHCEVILSTDSQYLRQGITQWIHNWKKRGWKTADKKPVKNVDLWQRLDAALGQHQIKWEWVKGHAGHPENERCDELARAAAMNPTLEDTGYQVEV [A52G V74L]	1.4	48.4	-4.6	97.8
